Measurements from US20240165282A1, “CONFORMATIONAL CONSTRAINED SOMATOSTATIN RECEPTOR 3 PEPTIDE LIGANDS AND THEIR CONJUGATES AND USES THEREOF” (STARGET PHARMA LTD., priority 2021, published 2024).
One block for each binder: values may come before it. *1 amine or outer side, *2 acyl side, *3 side chain or, on linkers, in order; H or OH if unused. Bridges are numbered along the chain shown (N, C = ends). [ ]: non-standard residue; d: D form. The star is where a group is joined. DOTA = O=C(O)CN1CCN(CC(=O)O)CCN(CC(=O)*)CCN(CC(=O)O)CC1; N(2-mercaptoethyl)Gly = O=C(CN(CCS[*:3])[*:1])[*:2]; Glutaryl = O=C(CCCC(=O)[*:2])[*:1]; 4Amb = NCc1ccc(C(=O)O)cc1; Orn = NCCC[C@H](N)C(=O)O; Aoc = NCCCCCCCC(=O)O; CPT = camptothecin

Assays:
Test in all cases: 125I-Tyr11-SRIF-14 displacement
[1] = target: human cloned somatostatin receptor 1 (human) (UniProt P30872)
human cloned somatostatin receptor 1 (human), sequence (P30872 whole entry): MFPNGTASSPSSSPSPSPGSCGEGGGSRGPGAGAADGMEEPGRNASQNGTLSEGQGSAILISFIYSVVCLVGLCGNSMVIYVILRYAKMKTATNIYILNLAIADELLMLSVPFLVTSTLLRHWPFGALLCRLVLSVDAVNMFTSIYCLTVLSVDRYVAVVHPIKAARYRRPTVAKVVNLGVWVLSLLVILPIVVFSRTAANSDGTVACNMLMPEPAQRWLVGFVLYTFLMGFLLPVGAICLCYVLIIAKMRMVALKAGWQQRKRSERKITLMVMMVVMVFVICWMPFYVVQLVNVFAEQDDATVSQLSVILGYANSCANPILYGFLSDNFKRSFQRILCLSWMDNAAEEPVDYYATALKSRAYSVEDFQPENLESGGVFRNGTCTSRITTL

[2] = target: human cloned somatostatin receptor 2 (human) (UniProt P30874)
human cloned somatostatin receptor 2 (human), sequence (P30874 whole entry): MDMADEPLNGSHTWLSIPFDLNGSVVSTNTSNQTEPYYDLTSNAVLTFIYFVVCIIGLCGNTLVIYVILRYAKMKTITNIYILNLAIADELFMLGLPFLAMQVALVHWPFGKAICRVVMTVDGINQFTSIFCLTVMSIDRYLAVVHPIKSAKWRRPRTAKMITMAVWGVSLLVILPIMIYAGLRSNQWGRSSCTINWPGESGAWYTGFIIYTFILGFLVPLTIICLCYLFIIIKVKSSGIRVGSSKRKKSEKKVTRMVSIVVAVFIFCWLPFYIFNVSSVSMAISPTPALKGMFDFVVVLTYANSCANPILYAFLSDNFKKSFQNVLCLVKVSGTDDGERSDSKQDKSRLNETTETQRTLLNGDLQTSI

[3] = target: human cloned somatostatin receptor 3 (human) (UniProt P32745)
human cloned somatostatin receptor 3 (human), sequence (P32745 whole entry): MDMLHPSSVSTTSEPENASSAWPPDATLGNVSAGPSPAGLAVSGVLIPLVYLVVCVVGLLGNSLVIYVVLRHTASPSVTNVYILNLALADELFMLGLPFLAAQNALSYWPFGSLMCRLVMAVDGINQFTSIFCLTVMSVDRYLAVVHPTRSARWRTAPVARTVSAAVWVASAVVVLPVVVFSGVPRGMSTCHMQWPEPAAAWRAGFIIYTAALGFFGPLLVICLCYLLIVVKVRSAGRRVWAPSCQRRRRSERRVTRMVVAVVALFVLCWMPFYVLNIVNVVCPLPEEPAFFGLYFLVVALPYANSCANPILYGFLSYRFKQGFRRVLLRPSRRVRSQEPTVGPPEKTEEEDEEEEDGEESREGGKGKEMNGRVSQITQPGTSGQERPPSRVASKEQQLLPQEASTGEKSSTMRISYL

[4] = target: human cloned somatostatin receptor 4 (human) (UniProt P31391)
human cloned somatostatin receptor 4 (human), sequence (P31391 whole entry): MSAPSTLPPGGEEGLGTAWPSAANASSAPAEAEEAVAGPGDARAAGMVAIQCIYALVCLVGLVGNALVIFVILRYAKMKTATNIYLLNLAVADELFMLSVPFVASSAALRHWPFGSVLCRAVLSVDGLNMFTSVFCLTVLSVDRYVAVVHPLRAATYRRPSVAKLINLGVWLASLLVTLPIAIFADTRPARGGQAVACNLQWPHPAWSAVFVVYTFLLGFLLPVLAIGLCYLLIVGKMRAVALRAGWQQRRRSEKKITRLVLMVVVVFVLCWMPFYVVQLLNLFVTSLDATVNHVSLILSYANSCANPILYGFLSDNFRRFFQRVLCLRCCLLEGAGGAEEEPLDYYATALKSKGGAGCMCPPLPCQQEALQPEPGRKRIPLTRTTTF

[5] = target: human cloned somatostatin receptor 5 (human) (UniProt P35346)
human cloned somatostatin receptor 5 (human), sequence (P35346 whole entry): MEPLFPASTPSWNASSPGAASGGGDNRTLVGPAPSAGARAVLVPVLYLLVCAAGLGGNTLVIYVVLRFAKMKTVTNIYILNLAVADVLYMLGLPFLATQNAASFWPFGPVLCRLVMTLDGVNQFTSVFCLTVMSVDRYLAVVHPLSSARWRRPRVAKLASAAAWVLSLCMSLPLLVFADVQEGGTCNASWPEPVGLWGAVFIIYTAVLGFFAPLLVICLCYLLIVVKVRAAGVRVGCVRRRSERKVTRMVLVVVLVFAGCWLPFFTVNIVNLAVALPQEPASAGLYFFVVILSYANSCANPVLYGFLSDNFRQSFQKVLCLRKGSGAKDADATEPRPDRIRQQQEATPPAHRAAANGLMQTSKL

% displacement at 1 nM [1]: 1%
% displacement at 10 nM [1]: 15%
% displacement at 1 nM [2]: 0%
% displacement at 10 nM [2]: 0%
% displacement at 1 nM [3]: 65%
% displacement at 10 nM [3]: 94%
% displacement at 1 nM [4]: 5%
% displacement at 10 nM [4]: 8%
% displacement at 1 nM [5]: 6%
% displacement at 10 nM [5]: 16%
B3: SEQ ID NO: 25 (peptide)
peptide: {DOTA}-[dF]RCY[dW]KTF[N(2-mercaptoethyl)Gly]-NH2
modifications: disulfide 3-9
SMILES: C[C@@H](O)[C@@H]1NC(=O)[C@H](CCCCN)NC(=O)[C@@H](Cc2c[nH]c3ccccc23)NC(=O)[C@H](Cc2ccc(O)cc2)NC(=O)[C@@H](NC(=O)[C@H](CCCNC(=N)N)NC(=O)[C@@H](Cc2ccccc2)NC(=O)CN2CCN(CC(=O)O)CCN(CC(=O)O)CCN(CC(=O)O)CC2)CSSCCN(CC(N)=O)C(=O)[C@H](Cc2ccccc2)NC1=O

% displacement at 1 nM [1]: 12%
% displacement at 10 nM [1]: 23%
% displacement at 1 nM [2]: 0%
% displacement at 10 nM [2]: 0%
% displacement at 1 nM [3]: 28%
% displacement at 10 nM [3]: 79%
% displacement at 1 nM [4]: 0%
% displacement at 10 nM [4]: 0%
% displacement at 1 nM [5]: 0%
% displacement at 10 nM [5]: 0%
Binder: {Niraparib-Glutaryl}-[dF]RCF[dW]KTF[N(2-mercaptoethyl)Gly]-NH2 (disulfide 3-9) [SEQ ID NO: 28]

% displacement at 1 nM [1]: 0%
% displacement at 10 nM [1]: 3%
% displacement at 1 nM [2]: 0%
% displacement at 10 nM [2]: 0%
% displacement at 1 nM [3]: 12%
% displacement at 10 nM [3]: 51%
% displacement at 1 nM [4]: 0%
% displacement at 10 nM [4]: 0%
% displacement at 1 nM [5]: 0%
% displacement at 10 nM [5]: 0%
Binder: {CPT-Aoc}-[dF]RCF[dW]KTF[N(2-mercaptoethyl)Gly]-NH2 (disulfide 3-9) [SEQ ID NO: 27]

% displacement at 1 nM [1]: 4%
% displacement at 10 nM [1]: 6%
% displacement at 1 nM [2]: 0%
% displacement at 10 nM [2]: 0%
% displacement at 1 nM [3]: 19%
% displacement at 10 nM [3]: 56%
% displacement at 1 nM [4]: 0%
% displacement at 10 nM [4]: 0%
% displacement at 1 nM [5]: 0%
% displacement at 10 nM [5]: 0%
B4: SEQ ID NO: 23 (peptide)
peptide: {DOTA}-[dF]E[Orn]CF[dW]KTF[N(2-mercaptoethyl)Gly]-NH2
modifications: disulfide 4-10
SMILES: C[C@@H](O)[C@@H]1NC(=O)[C@H](CCCCN)NC(=O)[C@@H](Cc2c[nH]c3ccccc23)NC(=O)[C@H](Cc2ccccc2)NC(=O)[C@@H](NC(=O)[C@H](CCCN)NC(=O)[C@H](CCC(=O)O)NC(=O)[C@@H](Cc2ccccc2)NC(=O)CN2CCN(CC(=O)O)CCN(CC(=O)O)CCN(CC(=O)O)CC2)CSSCCN(CC(N)=O)C(=O)[C@H](Cc2ccccc2)NC1=O

% displacement at 1 nM [1]: 0%
% displacement at 10 nM [1]: 24%
% displacement at 1 nM [2]: 0%
% displacement at 10 nM [2]: 0%
% displacement at 1 nM [3]: 53%
% displacement at 10 nM [3]: 86%
% displacement at 1 nM [4]: 0%
% displacement at 10 nM [4]: 0%
% displacement at 1 nM [5]: 0%
% displacement at 10 nM [5]: 1%
B5: SEQ ID NO: 26 (peptide)
peptide: H-XRCF[dW]KTY[N(2-mercaptoethyl)Gly]-NH2
modifications: disulfide 3-9; not fully specified (residue 1); printed as H-Phe1-Arg2-Cys3-Phe4-D-Trp5-Lys6-Thr7-Tyr8-NTEG9-NH2 (cyclo 3-9)

Second part, the binder before the results:

B1: SEQ ID NO: 20 (peptide)
peptide: {DOTA}-F[dF]RCF[dW]KTF[N(2-mercaptoethyl)Gly]-NH2
modifications: disulfide 4-10
SMILES: C[C@@H](O)[C@@H]1NC(=O)[C@H](CCCCN)NC(=O)[C@@H](Cc2c[nH]c3ccccc23)NC(=O)[C@H](Cc2ccccc2)NC(=O)[C@@H](NC(=O)[C@H](CCCNC(=N)N)NC(=O)[C@@H](Cc2ccccc2)NC(=O)[C@H](Cc2ccccc2)NC(=O)CN2CCN(CC(=O)O)CCN(CC(=O)O)CCN(CC(=O)O)CC2)CSSCCN(CC(N)=O)C(=O)[C@H](Cc2ccccc2)NC1=O
% displacement at 1 nM [1]: 8%
% displacement at 10 nM [1]: 14%
% displacement at 1 nM [2]: 0%
% displacement at 10 nM [2]: 2%
% displacement at 1 nM [3]: 66%
% displacement at 10 nM [3]: 95%
% displacement at 1 nM [4]: 0%
% displacement at 10 nM [4]: 0%
% displacement at 1 nM [5]: 0%
% displacement at 10 nM [5]: 0%

Binder: {DOTA}-[dF][Orn]CF[dW]KTF[N(2-mercaptoethyl)Gly]-NH2 (disulfide 3-9) [SEQ ID NO: 21]
% displacement at 1 nM [1]: 23%
% displacement at 10 nM [1]: 22%
% displacement at 1 nM [2]: 0%
% displacement at 10 nM [2]: 2%
% displacement at 1 nM [3]: 59%
% displacement at 10 nM [3]: 93%
% displacement at 1 nM [4]: 9%
% displacement at 10 nM [4]: 9%
% displacement at 1 nM [5]: 0%
% displacement at 10 nM [5]: 0%

B2: SEQ ID NO: 22 (peptide)
peptide: {DOTA}-[dF]EE[Orn]CF[dW]KTF[N(2-mercaptoethyl)Gly]-NH2
modifications: disulfide 5-11
SMILES: C[C@@H](O)[C@@H]1NC(=O)[C@H](CCCCN)NC(=O)[C@@H](Cc2c[nH]c3ccccc23)NC(=O)[C@H](Cc2ccccc2)NC(=O)[C@@H](NC(=O)[C@H](CCCN)NC(=O)[C@H](CCC(=O)O)NC(=O)[C@H](CCC(=O)O)NC(=O)[C@@H](Cc2ccccc2)NC(=O)CN2CCN(CC(=O)O)CCN(CC(=O)O)CCN(CC(=O)O)CC2)CSSCCN(CC(N)=O)C(=O)[C@H](Cc2ccccc2)NC1=O
% displacement at 1 nM [1]: 8%
% displacement at 10 nM [1]: 7%
% displacement at 1 nM [2]: 0%
% displacement at 10 nM [2]: 0%
% displacement at 1 nM [3]: 0%
% displacement at 10 nM [3]: 49%
% displacement at 1 nM [4]: 0%
% displacement at 10 nM [4]: 3%
% displacement at 1 nM [5]: 0%
% displacement at 10 nM [5]: 0%

Binder: {DOTA-4Amb}-[dF]RCF[dW]KTF[N(2-mercaptoethyl)Gly]-NH2 (disulfide 3-9) [SEQ ID NO: 18]
% displacement at 1 nM [1]: 0%
% displacement at 10 nM [1]: 4%
% displacement at 1 nM [2]: 0%
% displacement at 10 nM [2]: 0%
% displacement at 1 nM [3]: 49%
% displacement at 10 nM [3]: 85%
% displacement at 1 nM [4]: 0%
% displacement at 10 nM [4]: 8%
% displacement at 1 nM [5]: 0%
% displacement at 10 nM [5]: 0%
